From the supplement of paper PMC9112550, “Optimization of the antimicrobial peptide Bac7 by deep mutational scanning” (BMC Biology, 2022)

System: Escherichia coli TOP10
Test: shrunken log2 fold change of peptide-encoding DNA abundance (4.5 h post-induction vs induction); higher = less antimicrobial activity (less host growth inhibition)
Settings: time post-induction: 4.5 h; library: site-saturation at positions 5, 18, 19, 20
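Further: peptides expressed intracellularly from a pBAD plasmid library in pooled LB shake-flask culture, induced with 0.3% L-arabinose, DNA abundance read by NGS, three biological replicates, DESeq2 with apeglm shrinkage.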

| Sequence | shrunken log2 fold change |
| --- | --- |
| RRIRYRPPRLPRPRPRPKIYPRP | -0.884 |
| RRIRSRPPRLPRPRPRPRDDPRP | 0.0905 |
| RRIRERPPRLPRPRPRPDWMPRP | 0.0111 |
| RRIRHRPPRLPRPRPRPRCCPRP | -0.079 |
| RRIRARPPRLPRPRPRPTRAPRP | 1 |
| RRIRRRPPRLPRPRPRPPAHPRP | 0.728 |
| RRIRIRPPRLPRPRPRPDLIPRP | -0.217 |
| RRIRWRPPRLPRPRPRPYSNPRP | -0.2 |
| RRIRDRPPRLPRPRPRPWNMPRP | -0.508 |
| RRIRARPPRLPRPRPRPCSGPRP | 0.0771 |
| RRIRMRPPRLPRPRPRPGRVPRP | 0.919 |
| RRIRFRPPRLPRPRPRPEDIPRP | 0.0107 |
| RRIRRRPPRLPRPRPRPNFTPRP | 0.205 |
| RRIRVRPPRLPRPRPRPMPFPRP | -0.259 |
| RRIRKRPPRLPRPRPRPNHRPRP | -0.334 |
| RRIRQRPPRLPRPRPRPNPKPRP | -0.00731 |
| RRIRFRPPRLPRPRPRPWNPPRP | -0.222 |
| RRIRFRPPRLPRPRPRPMAPPRP | 0.114 |
| RRIRARPPRLPRPRPRPPLRPRP | 1.63 |
| RRIRKRPPRLPRPRPRPSMQPRP | 0.293 |
| RRIRCRPPRLPRPRPRPECGPRP | 0.436 |
| RRIRMRPPRLPRPRPRPKVFPRP | 0.0743 |
| RRIRYRPPRLPRPRPRPNWDPRP | -0.863 |
| RRIRRRPPRLPRPRPRPIVYPRP | -0.00893 |
| RRIRCRPPRLPRPRPRPNKYPRP | -0.324 |

| Sequence | shrunken log2 fold change |
| --- | --- |
| RRIRDRPPRLPRPRPRPNTPPRP | -0.0665 |
| RRIRGRPPRLPRPRPRPVIHPRP | 0.0507 |
| RRIRRRPPRLPRPRPRPEHCPRP | -0.00244 |
| RRIRVRPPRLPRPRPRPVKKPRP | 0.02 |
| RRIRIRPPRLPRPRPRPFYLPRP | -0.882 |
| RRIRLRPPRLPRPRPRPFINPRP | -0.572 |
| RRIRLRPPRLPRPRPRPSHTPRP | -0.258 |
| RRIRHRPPRLPRPRPRPFKPPRP | -0.163 |
| RRIRLRPPRLPRPRPRPPHRPRP | 0.182 |
| RRIRHRPPRLPRPRPRPGCDPRP | 0.123 |
| RRIRMRPPRLPRPRPRPWFQPRP | 0.134 |
| RRIRWRPPRLPRPRPRPVVLPRP | -0.0385 |
| RRIRCRPPRLPRPRPRPYMIPRP | -0.582 |
| RRIRCRPPRLPRPRPRPVPCPRP | 0.177 |
| RRIRERPPRLPRPRPRPPPSPRP | 0.415 |
| RRIRDRPPRLPRPRPRPMYFPRP | -0.358 |
| RRIRSRPPRLPRPRPRPYINPRP | -0.879 |
| RRIRNRPPRLPRPRPRPWWDPRP | -0.00674 |
| RRIRWRPPRLPRPRPRPQFNPRP | -0.498 |
| RRIRVRPPRLPRPRPRPPKYPRP | -0.416 |
| RRIRLRPPRLPRPRPRPRCNPRP | -0.534 |
| RRIRLRPPRLPRPRPRPSIKPRP | -0.684 |
| RRIRPRPPRLPRPRPRPNEWPRP | -0.203 |
| RRIRWRPPRLPRPRPRPEPAPRP | 1.18 |
| RRIRNRPPRLPRPRPRPDTWPRP | -0.213 |
